US20220162261A1 (published 2022)
Bridge positions count the residues as written; N and C are the ends. Square brackets hold non-standard residues; d marks the D form. Ends that are not written are not given here. Phe(4-tBu) = CC(C)(C)c1ccc(C[C@H](N)C(=O)O)cc1; NMeR = CN[C@@H](CCCNC(=N)N)C(=O)O; β3hE = N[C@@H](CCC(=O)O)CC(=O)O; Pen = CC(C)(S)[C@H](N)C(=O)O

Columns and labels:
[1] = target: T1, human α4β7 integrin on cells (human, UniProt P13612 34-1032; P26010 20-798); test: RPMI8866/MAdCAM cell adhesion
T1 construct: whole, on cells; also called α4β7 cell (Hu); RPMI8866 cells

[2] = target: T1, human α4β7 integrin on cells; test: memory T cell adhesion to MAdCAM-1, average of 4 donors
[3] = target: T2, human α4β1 integrin on cells (human, UniProt P13612 34-1032; P05556 21-798); test: memory T cell adhesion to VCAM-1
T2 construct: whole, on cells; also called α4β1 cell; Jurkat cells

[4] = target: T3, α4β1 (R&D Systems #5668-A4) (UniProt P13612 34-970; P05556 21-728, limits assumed); test: competition ELISA vs VCAM-1, 1 mM Mg
T3 construct: bought; also called soluble α4β1
Procedure: The solution was removed by shaking and then blocked with 250 ul of 1% BSA in 1×PBS per well. The wells were then incubated at room temperature for 1 hr with shaking. Each well was then washed once with wash buffer (50 mM Tris-HCl pH7.6, 100 mM NaCL, 1 mM MnCl2 or MgCl2, 0.05% Tween-20). 25 ul of serial dilutions of peptides starting at […] in assay buffer (Assay buffer: 50 mM Tris-HCl pH7.6, 100 mM NaCl, 1 mM MnCl2 or MgCl2, 0.05% Tween-20) was added to each well. Additionally, 25 ul of α4β1 (R&D Systems #5668-A4) was added to each well at a fixed concentration of 120 nM. The final peptide and α4β1 concentrations were […] and 60 nM, respectively. The plates were then incubated at 37° C. for 2 hr. The solution was then removed by shaking, and each well was washed three times with wash buffer. 50 ul of 9F10 antibody at 4 ug/ml (purified mouse anti-human CD49d, BD Bioscience Cat #555502) was then added to each well, and the plate was incubated at room temperature for 1 hr with shaking. The solution was again removed by shaking, and each well was washed three times with wash buffer. 50 ul of peroxidase-conjugated AffiniPure Goat anti-mouse IgG (Jackson immune research cat #115-035-003) diluted in 1:5000 in assay buffer was added to each well. The plate was incubated at room temperature for 30 min with shaking. […] The reaction was stepped with 2N H₂SO₄ and absorbance was read at 450 nm. […]

[5] = target: T4, mouse α4β7 integrin on TK1 cells (mouse, UniProt Q00651 41-1039; P26011 20-806); test: TK1 cell adhesion to MAdCAM-1
T4 construct: whole, on cells; also called α4β7 cell (Mu); Cell Adhesion α4β7 Mouse
T4 sequence (Q00651 41-1039, chain 1 of 2): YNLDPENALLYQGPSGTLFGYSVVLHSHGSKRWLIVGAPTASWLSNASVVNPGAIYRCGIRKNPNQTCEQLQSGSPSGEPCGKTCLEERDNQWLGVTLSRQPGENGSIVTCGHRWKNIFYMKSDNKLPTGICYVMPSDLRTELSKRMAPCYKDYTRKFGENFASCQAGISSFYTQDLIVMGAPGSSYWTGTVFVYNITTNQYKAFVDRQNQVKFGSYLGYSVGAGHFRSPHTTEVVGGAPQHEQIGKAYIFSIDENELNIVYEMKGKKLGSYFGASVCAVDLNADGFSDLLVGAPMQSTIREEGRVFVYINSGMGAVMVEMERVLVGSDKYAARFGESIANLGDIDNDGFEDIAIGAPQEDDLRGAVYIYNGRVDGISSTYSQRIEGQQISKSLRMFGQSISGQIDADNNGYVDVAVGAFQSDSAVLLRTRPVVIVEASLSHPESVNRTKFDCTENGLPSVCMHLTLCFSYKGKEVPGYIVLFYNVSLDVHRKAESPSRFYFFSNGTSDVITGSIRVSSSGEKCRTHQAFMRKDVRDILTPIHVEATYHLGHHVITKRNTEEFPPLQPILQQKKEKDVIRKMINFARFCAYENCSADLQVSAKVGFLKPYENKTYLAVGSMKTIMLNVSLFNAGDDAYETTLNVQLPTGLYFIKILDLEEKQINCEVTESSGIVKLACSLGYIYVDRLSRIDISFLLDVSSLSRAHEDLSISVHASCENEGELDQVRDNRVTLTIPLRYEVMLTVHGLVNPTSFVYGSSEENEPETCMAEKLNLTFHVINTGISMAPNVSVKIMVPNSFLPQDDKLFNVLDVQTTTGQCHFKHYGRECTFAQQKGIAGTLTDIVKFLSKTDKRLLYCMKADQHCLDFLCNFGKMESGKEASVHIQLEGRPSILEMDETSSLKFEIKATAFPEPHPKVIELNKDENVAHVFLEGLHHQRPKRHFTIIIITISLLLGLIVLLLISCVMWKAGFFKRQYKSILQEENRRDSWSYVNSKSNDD
T4 sequence (P26011 20-806, chain 2 of 2): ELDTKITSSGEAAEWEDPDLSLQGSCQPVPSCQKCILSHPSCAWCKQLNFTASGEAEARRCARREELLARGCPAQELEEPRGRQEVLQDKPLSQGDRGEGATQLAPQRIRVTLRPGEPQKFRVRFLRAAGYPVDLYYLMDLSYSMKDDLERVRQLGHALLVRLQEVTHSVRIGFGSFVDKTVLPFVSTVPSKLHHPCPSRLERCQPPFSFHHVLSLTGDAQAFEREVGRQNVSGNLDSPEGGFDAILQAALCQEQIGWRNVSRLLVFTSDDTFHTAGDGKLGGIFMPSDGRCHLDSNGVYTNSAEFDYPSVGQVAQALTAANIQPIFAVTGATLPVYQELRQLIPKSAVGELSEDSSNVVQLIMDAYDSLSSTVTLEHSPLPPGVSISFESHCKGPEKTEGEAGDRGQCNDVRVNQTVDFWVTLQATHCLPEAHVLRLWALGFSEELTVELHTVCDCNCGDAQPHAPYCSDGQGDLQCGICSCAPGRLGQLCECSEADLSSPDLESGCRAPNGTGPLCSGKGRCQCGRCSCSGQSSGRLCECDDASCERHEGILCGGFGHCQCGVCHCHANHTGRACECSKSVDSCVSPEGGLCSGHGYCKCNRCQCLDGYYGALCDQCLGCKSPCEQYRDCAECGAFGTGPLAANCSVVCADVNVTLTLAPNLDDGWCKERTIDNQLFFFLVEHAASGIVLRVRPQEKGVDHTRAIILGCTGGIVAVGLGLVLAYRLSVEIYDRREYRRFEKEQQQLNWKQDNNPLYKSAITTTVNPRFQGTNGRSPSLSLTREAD

[6] = target: T1, human α4β7 integrin on cells; test: α4β7 T cells
[7] = target: T5, human αLβ2 integrin on cells (human, UniProt P20701 26-1170; P05107 23-769); test: memory T cell adhesion to ICAM-1
T5 construct: whole, on cells; also called aLβ2
T5 sequence (P20701 26-1170, chain 1 of 2): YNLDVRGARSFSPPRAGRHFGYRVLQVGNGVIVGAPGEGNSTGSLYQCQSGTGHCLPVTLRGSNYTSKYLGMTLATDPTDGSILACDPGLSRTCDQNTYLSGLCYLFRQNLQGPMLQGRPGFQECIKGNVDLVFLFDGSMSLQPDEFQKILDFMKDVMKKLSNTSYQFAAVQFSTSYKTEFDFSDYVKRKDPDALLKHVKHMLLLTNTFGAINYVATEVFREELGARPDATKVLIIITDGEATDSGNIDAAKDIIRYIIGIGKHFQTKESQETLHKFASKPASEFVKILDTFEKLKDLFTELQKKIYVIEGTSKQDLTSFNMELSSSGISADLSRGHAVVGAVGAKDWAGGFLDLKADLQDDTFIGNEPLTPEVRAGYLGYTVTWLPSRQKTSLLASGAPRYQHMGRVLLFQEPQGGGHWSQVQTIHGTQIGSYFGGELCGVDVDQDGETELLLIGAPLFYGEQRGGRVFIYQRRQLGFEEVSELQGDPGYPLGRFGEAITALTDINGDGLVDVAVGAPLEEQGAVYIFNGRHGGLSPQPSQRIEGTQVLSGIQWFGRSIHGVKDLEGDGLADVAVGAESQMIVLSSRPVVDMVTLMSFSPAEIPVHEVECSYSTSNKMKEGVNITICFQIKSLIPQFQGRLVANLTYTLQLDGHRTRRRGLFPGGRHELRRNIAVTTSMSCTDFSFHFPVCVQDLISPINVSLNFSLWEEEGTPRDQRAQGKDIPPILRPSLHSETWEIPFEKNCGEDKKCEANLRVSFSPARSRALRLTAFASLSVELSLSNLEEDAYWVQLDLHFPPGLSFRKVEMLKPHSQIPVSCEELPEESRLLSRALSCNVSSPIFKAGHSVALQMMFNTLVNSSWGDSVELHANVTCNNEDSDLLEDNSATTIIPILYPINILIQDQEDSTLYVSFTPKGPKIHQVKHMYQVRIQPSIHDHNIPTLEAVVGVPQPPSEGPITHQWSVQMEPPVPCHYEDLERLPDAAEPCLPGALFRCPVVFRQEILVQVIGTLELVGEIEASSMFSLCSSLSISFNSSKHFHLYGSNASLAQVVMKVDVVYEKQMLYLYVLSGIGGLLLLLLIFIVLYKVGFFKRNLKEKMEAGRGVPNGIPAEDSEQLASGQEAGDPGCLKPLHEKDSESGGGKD
T5 sequence (P05107 23-769, chain 2 of 2): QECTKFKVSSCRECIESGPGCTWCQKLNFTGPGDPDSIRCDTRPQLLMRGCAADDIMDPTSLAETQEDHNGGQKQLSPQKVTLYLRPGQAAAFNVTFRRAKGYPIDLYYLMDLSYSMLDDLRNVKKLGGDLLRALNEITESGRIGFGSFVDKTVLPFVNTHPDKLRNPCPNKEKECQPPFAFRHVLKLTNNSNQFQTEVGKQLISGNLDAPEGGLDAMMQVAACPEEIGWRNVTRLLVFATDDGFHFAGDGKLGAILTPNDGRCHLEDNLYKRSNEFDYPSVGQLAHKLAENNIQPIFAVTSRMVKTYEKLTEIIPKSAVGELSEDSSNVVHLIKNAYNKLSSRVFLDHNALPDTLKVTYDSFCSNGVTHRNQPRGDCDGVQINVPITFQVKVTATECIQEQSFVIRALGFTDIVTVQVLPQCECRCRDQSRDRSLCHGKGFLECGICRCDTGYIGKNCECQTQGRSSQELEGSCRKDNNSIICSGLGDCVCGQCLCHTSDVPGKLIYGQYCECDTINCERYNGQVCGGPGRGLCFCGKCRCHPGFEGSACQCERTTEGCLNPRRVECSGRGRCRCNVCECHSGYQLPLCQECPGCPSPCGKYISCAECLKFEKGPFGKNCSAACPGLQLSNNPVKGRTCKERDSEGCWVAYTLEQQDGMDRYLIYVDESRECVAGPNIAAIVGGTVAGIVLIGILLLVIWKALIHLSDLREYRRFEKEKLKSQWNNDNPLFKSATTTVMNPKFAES

[8] = target: T1, human α4β7 integrin on cells; test: RPMI8866 cell adhesion to MAdCAM-1
[9] = target: T6, rh integrin α4β7 (R&D Systems #5397-A30) (human, UniProt P13612 34-970; P26010 20-723); test: competition ELISA vs MAdCAM-1, 1 mM Mg
T6 construct: bought; coated on a nickel coated plate; also called immobilized α4β7; immobilized α4β7 integrin protein

[10] = target: T4, mouse α4β7 integrin on TK1 cells; test: TK1 cell adhesion to MAdCAM-1; acetate salt
[11] = target: T4, mouse α4β7 integrin on TK1 cells; test: TK1 cell adhesion to MAdCAM-1; remark: listed apart in the source
[12] = target: T3, α4β1 (R&D Systems #5668-A4); test: competition ELISA vs VCAM-1; acetate salt
[13] = target: T1, human α4β7 integrin on cells; test: RPMI8866 cell adhesion to MAdCAM-1; acetate salt
[14] = target: T6, rh integrin α4β7 (R&D Systems #5397-A30); test: competition ELISA vs MAdCAM-1
[15] = target: T1, human α4β7 integrin on cells; test: PBMC memory T cell adhesion; acetate salt
[16] = target: T1, human α4β7 integrin on cells; test: RPMI8866 cell adhesion to MAdCAM-1; remark: listed apart in the source
[17] = target: T1, human α4β7 integrin on cells; test: PBMC memory T cell adhesion
[18] = target: T2, human α4β1 integrin on cells; test: Jurkat cell adhesion to VCAM-1
[19] = target: T6, rh integrin α4β7 (R&D Systems #5397-A30); test: competition ELISA vs MAdCAM-1; acetate salt
[20] = target: human α4β7 integrin on cells (human) (UniProt P13612); test: FACS, human whole blood, Neutrophils
[21] = target: human α4β7 integrin on cells (human) (UniProt P13612); test: FACS, human whole blood, CD4 memory T cells
[22] = target: human α4β7 integrin on cells (human) (UniProt P13612); test: FACS, human whole blood, Eosinophils
[23] = target: human α4β7 integrin on cells (human) (UniProt P13612); test: FACS, human whole blood, Basophils
[24] = target: human α4β7 integrin on cells (human) (UniProt P13612); test: FACS, human whole blood, Monocytes
[25] = target: human α4β7 integrin on cells (human) (UniProt P13612); test: FACS, human whole blood, NK cells CD16+ 56+
[26] = target: human α4β7 integrin on cells (human) (UniProt P13612); test: FACS, human whole blood, CD8 naïve T cells
[27] = target: human α4β7 integrin on cells (human) (UniProt P13612); test: FACS, human whole blood, CD4 naïve T cells
[28] = target: human α4β7 integrin on cells (human) (UniProt P13612); test: FACS, human whole blood, CD19+ B cells
[29] = target: human α4β7 integrin on cells (human) (UniProt P13612); test: FACS, human whole blood, CD8 memory T cells
soluble α4β7 integrin [30] = target: soluble α4β7 integrin (UniProt P13612); test: SPR, binder on streptavidin chip, soluble α4β7
soluble α4β7 integrin [31] = target: T7, soluble α4β7 integrin (UniProt P13612 34-970; P26010 20-723, limits assumed); test: SPR, binder on streptavidin chip, soluble α4β7
T7 construct: analyte of the SPR experiment

soluble α4β7 integrin [32] = target: T7, soluble α4β7 integrin; test: SPR

B1: Peptide X Alexa 647 conjugate (peptide)
peptide: Ac-[Pen][NMeR]SDTL[Pen][Phe(4-tBu)][β3hE][dK]
modifications: disulfide 1-7; not fully specified (residue 10); also: Alexa 647 label, position not given here
- IC50 [1]: 0.15 nM

B2: Peptide X (peptide)
peptide: Ac-[Pen][NMeR]SDTL[Pen][Phe(4-tBu)][β3hE][dK]
modifications: disulfide 1-7; not fully specified (residue 10); printed as [Ac-Pen-(N-Me-Arg)-Ser-Asp-Thr-Leu-Pen-Phe(4-tBu)-(β-homoGlu)-(D-Lys)]2-DIG; also: homodimer via DIG linker on D-Lys side chains
notes: also called Compound X
- IC50 [2]: 1.3 nM
- IC50 [3]: > 100 µM
- IC50 [4]: > 10 µM
- IC50 [5]: 0.5 nM
- IC50 [6]: 1 nM
- IC50 [7]: > 100 µM
- IC50 [8]: 0.72 nM
- IC50 [9]: 3 nM

B3: SEQ ID NO: 132 (peptide)
peptide: Ac-[Pen][NMeR]SDTL[Pen][Phe(4-tBu)][β3hE][dK]-NH2
modifications: disulfide 1-7; not fully specified (residue 10); printed as (Ac Pen N-Me-R S D T L Pen F(4tBu) b-H-E k NH2)2 DIG, disulfide Pen-Pen; also: homodimer, two subunits joined by DIG linker
notes: the second listing is the acetate salt
- IC50 [10]: ≤ 10 nM
- IC50 [11]: ≤ 10 nM
- IC50 [12]: > 500 nM
- IC50 [13]: ≤ 10 nM
- IC50 [14]: ≤ 10 nM
- IC50 [15]: ≤ 10 nM
- IC50 [16]: ≤ 10 nM
- IC50 [17]: ≤ 10 nM
- IC50 [18]: > 100 µM
- IC50 [19]: ≤ 10 nM

B4: biotin-labeled vedolizumab antibody (antibody, INN chains, looked up, V domains shown)
VH: QVQLVQSGAEVKKPGASVKVSCKGSGYTFTSYWMHWVRQAPGQRLEWIGEIDPSESNTNYNQKFKGRVTLTVDISASTAYMELSSLRSEDTAVYYCARGGYDGWDYAIDYWGQGTLVTVSS
VL: DVVMTQSPLSLPVTPGEPASISCRSSQSLAKSYGNTYLSWYLQKPGQSPQLLIYGISNRFSGVPDRFSGSGSGTDFTLKISRVEAEDVGVYYCLQGTHQPYTFGQGTKVEIKR
modifications: biotin label
- Percent positive staining [20]: 0.45%
- Percent positive staining [21]: 22%
- Percent positive staining [22]: 91%
- Percent positive staining [23]: 86%
- Percent positive staining [24]: 7%
- Percent positive staining [25]: 42%
- Percent positive staining [26]: 53%
- Percent positive staining [27]: 55%
- Percent positive staining [28]: 85%
- Percent positive staining [29]: 36%
- Half-life for dissociation (soluble α4β7 integrin [30]): 43 min
- Kd (soluble α4β7 integrin [30]): 59.5 nM
- koff (soluble α4β7 integrin [30]): 0.000266 s⁻¹
- kon (soluble α4β7 integrin [30]): 4470 M⁻¹ s⁻¹

B5: Peptide X-biotin (peptide)
peptide: Ac-[Pen][NMeR]SDTL[Pen][Phe(4-tBu)][β3hE][dK]
modifications: disulfide 1-7; not fully specified (residue 10); also: dimer of two subunits joined by a linker at D-Lys10, biotin attached via PEG linker, position not given here
- Kd (soluble α4β7 integrin [31]): 15.4 nM
- koff (soluble α4β7 integrin [31]): 1.73e-05 s⁻¹
- kon (soluble α4β7 integrin [31]): 1120 M⁻¹ s⁻¹
- fold lower KD than biotin-labeled vedolizumab (soluble α4β7 integrin [32]): 3.8 fold
